The results in this text go back to patent publication US20050272633A1.

This assay concerns the target endogenous NIK of mouse embryonic fibroblast cells (mouse) (UniProt Q9WUL6). Nature of the assay: cell-based or functional assay.

Chain of endogenous NIK of mouse embryonic fibroblast cells (mouse) (Q9WUL6 whole entry): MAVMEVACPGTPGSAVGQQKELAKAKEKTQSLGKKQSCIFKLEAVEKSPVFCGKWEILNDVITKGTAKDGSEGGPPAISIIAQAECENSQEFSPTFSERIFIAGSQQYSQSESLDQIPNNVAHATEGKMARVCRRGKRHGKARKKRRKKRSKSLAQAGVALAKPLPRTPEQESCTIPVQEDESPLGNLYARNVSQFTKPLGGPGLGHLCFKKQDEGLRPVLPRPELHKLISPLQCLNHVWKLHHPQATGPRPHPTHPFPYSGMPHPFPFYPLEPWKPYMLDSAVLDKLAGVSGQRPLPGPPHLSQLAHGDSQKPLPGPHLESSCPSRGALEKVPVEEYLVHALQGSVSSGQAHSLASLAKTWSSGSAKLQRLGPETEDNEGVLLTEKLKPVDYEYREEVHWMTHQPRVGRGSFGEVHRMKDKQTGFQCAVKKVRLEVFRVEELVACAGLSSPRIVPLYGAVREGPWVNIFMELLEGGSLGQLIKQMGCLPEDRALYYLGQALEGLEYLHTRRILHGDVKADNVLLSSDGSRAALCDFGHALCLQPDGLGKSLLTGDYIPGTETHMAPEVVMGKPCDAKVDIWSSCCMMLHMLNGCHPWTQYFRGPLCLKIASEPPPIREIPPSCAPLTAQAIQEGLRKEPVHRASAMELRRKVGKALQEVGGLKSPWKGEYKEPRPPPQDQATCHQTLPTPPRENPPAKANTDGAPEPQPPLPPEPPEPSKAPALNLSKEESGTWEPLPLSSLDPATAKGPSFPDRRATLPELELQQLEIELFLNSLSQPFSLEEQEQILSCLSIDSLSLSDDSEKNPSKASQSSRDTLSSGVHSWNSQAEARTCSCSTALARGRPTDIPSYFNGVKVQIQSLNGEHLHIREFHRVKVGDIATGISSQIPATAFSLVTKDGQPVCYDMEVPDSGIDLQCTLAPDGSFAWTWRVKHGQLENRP

For “GST fusion protein with the intracellular domain of cγc (pGSTICcγc) (from UniProt P31785 284-369)”, the NF-κB activation by LTβ, luciferase reporter assay, mouse embryonic fibroblast cell line was 2.5 fold.

The substance “GST-41MDD fusion protein (from UniProt P31785 329-369)” gave a decrease in NF-κB activation by LTβ, luciferase reporter assay, mouse embryonic fibroblast cell line of 50%.
